Assay results reported in article PMC7064531.

Molecular target: hRpn10^322–366 peptide with Y326 phosphorylated (human) (UniProt P55036)
Assay: ITC; 25 °C, MicroCal iTC200; E6AP AZUL injected into hRpn10 305-377 (0.0405 mM) or hRpn10 322-366 peptides (0.01 mM) in the cell; 10 mM MOPS pH 6.5, 50 mM NaCl, 5 mM DTT, 10 μM zinc sulfate; one-site fit

Sequence of E6AP AZUL (amino-terminal zinc-binding domain of ubiquitin E3a ligase), amino acids 24 to 87 (Q05086 24-87): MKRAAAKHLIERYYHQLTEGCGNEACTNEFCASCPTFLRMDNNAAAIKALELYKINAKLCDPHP

E6AP AZUL (amino-terminal zinc-binding domain of ubiquitin E3a ligase), amino acids 24 to 87 (from UniProt Q05086 24-87) (domain or fragment)
fold reduction of affinity against unphosphorylated hRpn10 322-366: 10 fold
